Holding throughout (assay type): biochemical, bovine
Substrate in series [1]: N=C(N)NCCC[C@H](N)C(=O)N[C@@H](CO)C(=O)N1CCC[C@H]1C(=O)N1CCC[C@H]1C(=O)N1CCC[C@H]1C(=O)O
Description: Determination of kinetic parameters for acceptor peptides (Dowex-2 assay). The note with it: other: calculated assuming that S0 << Km; pH 7.2. The method, then: (§1) The transfer of N-acetylgalactosamine to peptide acceptors is assayed by two different assays. The concentration of UDP-GalNAc is saturating in all assays; a Km of 8 μM is reported for bovine colostrum GalNAc-transferase (Elhammer and Kornfeld, 1986). For the determination of kinetic parameters the reaction mixture contains 50 mM Imidazole, pH 7.2, 10 mM MnCl2, 0.5% Triton X-100, 150 μM UDP-GalNAc, approximately 120,000 cpm of UDP-[1-^3 H]-GalNAc, varying concentrations of acceptor (see individual experiments) and approximately 5 mU of enzyme in a final volume of 40 μl; standard incubation time is 20 minutes. The reaction is terminated by placing the samples in a boiling water bath for 1.5 minutes. The reaction product (glycosylated peptide) is separated from unreacted UDP-GalNAc by chromatography on Dowex-2 columns (0.5 ml bed volume) equilibrated in water; the run-through fraction (2.5 ml) containing the glycosylated peptide is collected, supplemented with scintillation fluid and counted for radioactivity. For the determination of the low levels of transfer to serine, the assay conditions are as follows: 50 mM Imidazole, pH 7.2, 10 mM MnCl2, 0.5% Triton X-100, 150 μM UDP-GalNAc, approximately 260,000 cpm UDP-[^3 H]-GalNAc and 3.2 mM acceptor peptide (the concentration of RSPPP is 3.7 mM). The assays are incubated for 20 minutes ([…]) [SEQ ID NO:14] or 8 hours ([…] [SEQ ID NO:15], PPAdSSdSAPG and RSPPP [SEQ ID NO:13]). Following incubation, the enzyme is inactivated by placing the samples on a boiling water bath for 1.5 minutes. The samples are then allowed to cool and the reaction products are separated from unreacted UDP-GalNAc and free GalNAc by chromatography on a Biogel P-2 column (1×50 cm) equilibrated in 7% isopropanol; thirty 1.3 ml fractions are collected.
(§2) Assays were carried out as described in Materials and Methods.
(§3) Assay time was 20 minutes.
(§4) The values are given as means ± S.E. (n = 3)

Substrate in series [2]: C[C@@H](O)[C@H](NC(=O)[C@@H](N)CCCNC(=N)N)C(=O)N1CCC[C@H]1C(=O)N1CCC[C@H]1C(=O)N1CCC[C@H]1C(=O)O
The description is as above. The note with it: other: acceptor peptide; 150 μM UDP-GalNAc, 20 minutes; means ± S.E. (n = 3); pH 7.2. The method, then:
as §1, §2, §3, §4

Substrate in series [3]: C[C@H](NC(=O)[C@@H]1CCCN1C(=O)[C@@H]1CCCN1)C(=O)N[C@@H](CO)C(=O)N[C@@H](CO)C(=O)N[C@@H](CO)C(=O)N[C@@H](C)C(=O)N1CCC[C@H]1C(=O)NCC(=O)O
The description is as above. The note with it: other: calculated assuming that S0 << Km; pH 7.2. The method, then:
as §1, §2, §3, §4

Substrate in series [4]: C[C@H](NC(=O)[C@@H]1CCCN1C(=O)[C@@H]1CCCN1)C(=O)N[C@@H](CO)C(=O)N[C@H](C(=O)N[C@@H](CO)C(=O)N[C@@H](C)C(=O)N1CCC[C@H]1C(=O)NCC(=O)O)[C@@H](C)O
The series is described as above. The note with it: other: acceptor peptide; 150 μM UDP-GalNAc, 20 minutes; means ± S.E. (n = 3); pH 7.2. How it is done: as §1, §2, §3, §4

Substrate in series [5]: C[C@H](NC(=O)[C@@H]1CCCN1C(=O)[C@@H]1CCCN1)C(=O)N[C@H](CO)C(=O)N[C@H](C(=O)N[C@H](CO)C(=O)N[C@@H](C)C(=O)N1CCC[C@H]1C(=O)NCC(=O)O)[C@@H](C)O
Described as above. The following applies: other: calculated assuming that S0 << Km; pH 7.2. The method, then: as §1, §2, §3, §4

Substrate in series [6]: CC(C)C[C@H](NC(=O)[C@@H]1CCCN1C(=O)[C@H](C)NC(=O)[C@H](C)NC(=O)[C@H](CO)NC(=O)[C@H](C)NC(=O)[C@H](C)NC(=O)[C@H](CC(=O)O)NC(=O)[C@@H]1CCCN1C(=O)[C@@H]1CCCN1)C(=O)N[C@@H](CCCNC(=N)N)C(=O)O
Kind of series: Kinetic parameters with the cloned soluble GalNAc-transferase (Bond Elut assay). The note with it: other: GalNAcTs; double reciprocal plots.

Substrate in series [7]: C[C@H](NC(=O)[C@@H]1CCCN1C(=O)[C@@H]1CCCN1)C(=O)N[C@@H](CO)C(=O)N[C@H](C(=O)N[C@@H](CO)C(=O)N[C@@H](C)C(=O)N1CCC[C@H]1C(=O)NCC(=O)O)[C@@H](C)O
Described as above. The note with it: other: GalNAcTs; double reciprocal plots.

Values joined by “and” are separate entries in the source; they are usually repeats but may differ in a detail not shown here. Identical values can stand only once.

kcat/Km, Km and kcat data for 2 proteins are collected here from patent US5910570A, “Cloned DNA encoding a UDP-GalNAc: polypeptide N-acetylgalactosaminy-ltransferase” (Pharmacia & Upjohn Company, priority 1997, dated 1999).

B1: bovine colostrum GalNAc-transferase (Bos taurus) (protein)
chain: GLPAGDVLEPVQKPHEGPGEMGKPVVIPKEDQEKMKEMFKINQFNLMASEMIALNRSLPDVRLEGCKTKVYPDNLPTTSVVIVFHNEAWSTLLRTVHSVINRSPRHMLEEIVLVDDASERDFLKRPLESYVKKLKVPVHVIRMEQRSGLIRARLKGAAVSKGQVITFLDAHCECTVGWLEPLLARIKHDRKTVVCPIIDVISDDTFEYMAGSDMTYGGFNWKLNFRWYPVPQREMDRRKGDRTLPVRTPTMAGGLFSIDRDYFQEIGTYDAGMDIWGGENLEISFRIWQCGGTLEIVTCSHVGHVFRKATPYTFPGGTGQIINKNNRRLAEVWMDEFKNFFYIISPGVTKVDYGDISSRLGLRHKLQCRPFSWYLENIYPDSQIPRHYFSLGEIRNVETNQCLDNMARKENEKVGIFNCHGMGGNQVFSYTANKEIRTDDLCLDVSKLNGPVTMLKCHHLKGNQLWEYDPVKLTLQHVNSNQCLDKATDEDSQVPSIRDCSGSRSQQWLLRNVTLPEIF
notes: from tissue; host or cells: bovine colostrum
The kcat/Km is the turnover number divided by the Michaelis constant. What is called Km is the substrate concentration at which the rate is half of its maximum. For orientation: kcat means the maximal rate divided by the concentration of active sites. With B1, the kcat/Km in series [1] is 0.4 M⁻¹ s⁻¹; in series [2], 183 M⁻¹ s⁻¹; in series [3], 8.5 M⁻¹ s⁻¹; in series [4] it was 301 M⁻¹ s⁻¹; in series [5], 1.2 M⁻¹ s⁻¹. The Michaelis constant (Km) in series [2] is 3.3 mM; in series [4], 6 mM. For the same protein, the turnover number (kcat) in series [2] was 0.604 ± 0.083 s⁻¹; in series [4], 1.81 ± 0.357 s⁻¹.

B2: cloned soluble GalNAc-transferase (GalNAcTs) (Bos taurus) (protein)
chain: LEPVQKPHEGPGEMGKPVVIPKEDQEKMKEMFKINQFNLMASEMIALNRSLPDVRLEGCKTKVYPDNLPTTSVVIVFHNEAWSTLLRTVHSVINRSPRHMLEEIVLVDDASERDFLKRPLESYVKKLKVPVHVIRMEQRSGLIRARLKGAAVSKGQVITFLDAHCECTVGWLEPLLARIKHDRKTVVCPIIDVISDDTFEYMAGSDMTYGGFNWKLNFRWYPVPQREMDRRKGDRTLPVRTPTMAGGLFSIDRDYFQEIGTYDAGMDIWGGENLEISFRIWQCGGTLEIVTCSHVGHVFRKATPYTFPGGTGQIINKNNRRLAEVWMDEFKNFFYIISPGVTKVDYGDISSRLGLRHKLQCRPFSWYLENIYPDSQIPRHYFSLGEIRNVETNQCLDNMARKENEKVGIFNCHGMGGNQVFSYTANKEIRTDDLCLDVSKLNGPVTMLKCHHLKGNQLWEYDPVKLTLQHVNSNQCLDKATDEDSQVPSIRDCSGSRSQQWLLRNVTLPEIF
notes: The plasmid pAC373-GalNAcT (Homa et al., 1993) which contains the full length GalNAc-transferase gene; honeybee melittin signal peptide (21 aa) (N, cleaved yes); made in house; host or cells: Sf9 cells / baculovirus, purified from serum-free culture medium on apomucin-Sepharose
As for B2, the Km in series [6] was 3.6 mM and 3.5 mM; in series [7] it was 6.5 mM.
